B1: B7-H6, wild type, stably expressed on B7-H6 knockout 293T cells [modified: N-linked glycans at N43, N57, N174, N208, N216 and N242; N-linked glycans at N43, N57, N174, N208, N216 and N242] [human] / rhNKp30-his protein [human] (parent)
chain 1: LWVSQPPEIRTLEGSSAFLPCSFNASQGRLAIGSVTWFRDEVVPGKEVRNGTPEFRGRLAPLASSRFLHDHQAELHIRDVRGHDASIYVCRVEVLGLGVGTGNGTRLVVEKEHPQLG
chain 2: DLKVEMMAGGTQITPLNDNVTIFCNIFYSQPLNITSMGITWFWKSLTFDKEVKVFEFFGDHQEAFRPGAIVSPWRLKSGDASLRLPGIQLEEAGEYRCEVVVTPLKAQGTVQLEVVASPASRLLLDQVGMKENEDKYMCESSGFYPEAINITWEKQTQKFPHPIEISEDVITGPTIKNMDGTFNVTSCLKLNSSQEDPGTVYQCVVRHASLHTPLRSNFTLTAARHSLSETEKTDNFSIHWWPISFIGVGLVLLIVLIPWKKICNKSSSAYTPLKCILKHWNSFDTQTLKKEHLIFFCTRAWPSYQLQDGEAWPPEGSVNINTIQQLDVFCRQEGKWSEVPYVQAFFALRDNPDLCQCCRIDPALLTVTSGKSIDDNSTKSEKQTPREHSDAVPDAPILPVSPIWEPPPATTSTTPVLSSQPPTLLLPLQ
B2: rhB7-H6-hFc recombinant protein, wild type [modified: N-linked glycans (removed on the plate by PNGase F in assay a2); N-linked glycans (removed on the plate by PNGase F in assay a2)] [human] / rhNKp30-his protein [human] (parent)
chain 1: B1 chain 1
chain 2: DLKVEMMAGGTQITPLNDNVTIFCNIFYSQPLNITSMGITWFWKSLTFDKEVKVFEFFGDHQEAFRPGAIVSPWRLKSGDASLRLPGIQLEEAGEYRCEVVVTPLKAQGTVQLEVVASPASRLLLDQVGMKENEDKYMCESSGFYPEAINITWEKQTQKFPHPIEISEDVITGPTIKNMDGTFNVTSCLKLNSSQEDPGTVYQCVVRHASLHTPLRSNFTLTAARHSLSETEKTDNFS

Variants of B1 are the subject of the first test. Put plainly: flow cytometry on cells. Conditions: with rhNKp30-his protein [human]; 293T cells stably expressing B7-H6, stained with his-tagged NKp30; parent: 1; read off a plot.
In the case of chain 2 N192Q, the ratio to parent was 0.42.

Consider chain 2 N33Q, for which the ratio to parent turned out to be 0.57. Same read-out and setting: then chain 2 N184Q, with 0.22; and chain 2 N150Q, with 0.8; and chain 2 N218Q, with 0.86. As to chain 2 N19Q, the ratio to parent is 0.14.

Variants of B2 are the subject of a further test. Description: ELISA. Conditions: with rhNKp30-his protein [human]; no PNGase F pretreatment; read at the highest NKp30 conc. tested, 2 (unit not printed in this panel); parent: 1.7; read off a plot.
As to chain 2 N33Q, the response was found to be 1.5 OD.

The test is the same for the next values; noted with them: with rhNKp30-his protein [human]; pretreated with denatured PNGase F; read at the highest NKp30 conc. tested, 2 (unit not printed in this panel); read off a plot.
With chain 2 N33Q, the response turned out to be 1.4 OD.
